Numbering of substitutions follows the chain as printed.

Test [1] has as its target T1, human FcγRIIaH extracellular domain with C-terminal His-tag (human, UniProt P12318 34-217).
T1 construct: Expressed in FreeStyle 293 cells and purified; also called human FcγRIIa (type H); FcgRIIaH; not shown: C-terminal His-tag
T1 sequence: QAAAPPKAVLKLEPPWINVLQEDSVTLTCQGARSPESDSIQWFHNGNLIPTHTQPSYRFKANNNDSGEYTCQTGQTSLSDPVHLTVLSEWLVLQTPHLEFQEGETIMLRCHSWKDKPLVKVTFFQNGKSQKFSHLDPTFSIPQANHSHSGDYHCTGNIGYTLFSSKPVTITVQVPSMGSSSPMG
The experiment in a line: SPR (Biacore), antibody captured on chip, FcgR extracellular domain as analyte, 25 C. For orientation: In SPR one partner is held on a chip, and binding of the other changes the refractive index at the surface.

Test [2] addresses T2, human FcγRIIIaV extracellular domain with C-terminal His-tag (human, UniProt P08637 17-208).
T2 construct: Expressed in FreeStyle 293 cells and purified; also called FcgRIIIaV; not shown: C-terminal His-tag
Described as above.

Test [3] deals with T3, Human latent myostatin (human, UniProt O14793 25-266; O14793 267-375).
T3 construct: Biotinylated in the ELISAs; also called human myostatin latent form
T3 sequence 1: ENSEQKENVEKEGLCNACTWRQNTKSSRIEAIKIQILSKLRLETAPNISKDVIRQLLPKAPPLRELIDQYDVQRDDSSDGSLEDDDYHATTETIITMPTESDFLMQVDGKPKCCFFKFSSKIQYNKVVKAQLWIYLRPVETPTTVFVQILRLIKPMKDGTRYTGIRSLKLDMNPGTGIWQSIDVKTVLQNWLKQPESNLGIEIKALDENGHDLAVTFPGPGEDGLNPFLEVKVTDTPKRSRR
T3 sequence 2: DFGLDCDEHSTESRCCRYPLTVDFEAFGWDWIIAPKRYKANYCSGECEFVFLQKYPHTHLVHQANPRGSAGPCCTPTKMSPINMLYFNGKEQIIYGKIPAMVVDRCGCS
Nature of the test: SPR (BIACORE T200), 37 C, pH5.8, avidity condition (capture 185 RU), 1:1 fit; pH 5.8. On the procedure:
(§1) The kinetic parameters of anti-latent myostatin antibodies against human, cynomolgus monkey (cyno), and mouse latent myostatin were assessed at 37° C. at pH7.4 using a BIACORE® T200 instrument (GE Healthcare). ProA/G (Pierce) was immobilized onto all flow cells of a CM4 chip using amine coupling kit (GE Healthcare). Anti-latent myostatin antibody and analytes were prepared in ACES pH7.4 (20 mM ACES, 150 mM NaCl, 1.2 mM CaCl₂), 0.05% TWEEN® 20, 0.005% NaN₃). […] Then human, cyno, or mouse latent myostatin was injected at 3.125 to 50 nM prepared by two-fold serial dilution, followed by dissociation. The sensor surface was regenerated with 25 mM NaOH. Kinetic parameters were determined by processing and fitting the data to a 1:1 binding model using BIACORE® T200 Evaluation software, version 2.0 (GE Healthcare).
(§2) All experimental settings were the same as in Example 7, except that measurements were also performed in ACES pH5.8 buffer in addition to ACES pH7.4 condition. Some antibodies were only measured against human latent myostatin. Antibody capture level was aimed at 185 RU and 18.5 RU, for avidity and affinity assay, respectively. Kinetic parameters were determined using 1:1 Binding fitting using BIACORE® T200 Evaluation software, version 2.0 (GE Healthcare).

Test [4] concerns the target T4, Cynomolgus monkey latent myostatin (cynomolgus monkey, UniProt Q95J86 25-266; Q95J86 267-375).
T4 construct: signal 1-24; also called Cyno latent myostatin
T4 sequence 1: T3 sequence 1 with V52A
T4 sequence 2: T3 sequence 2
The description is as above. On the procedure:
as §1, §2

Test [5] deals with T5, Mouse latent myostatin (mouse, UniProt O08689 26-267; O08689 268-376).
T5 construct: signal 1-24
T5 sequence 1: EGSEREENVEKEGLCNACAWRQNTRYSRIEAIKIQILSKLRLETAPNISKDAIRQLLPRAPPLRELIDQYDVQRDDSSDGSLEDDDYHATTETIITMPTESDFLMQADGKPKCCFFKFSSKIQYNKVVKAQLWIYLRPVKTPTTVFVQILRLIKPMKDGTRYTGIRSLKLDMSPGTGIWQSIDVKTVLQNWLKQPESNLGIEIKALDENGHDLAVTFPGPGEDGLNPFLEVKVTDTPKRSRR
T5 sequence 2: T3 sequence 2
The description is as above. The procedure: as §1, §2

Test [6] concerns the target T4, Cynomolgus monkey latent myostatin. The experiment in a line: SPR (BIACORE T200), 37 C, pH7.4, 1:1 fit; title prints avidity, by the text the affinity condition (capture 18.5 RU); pH 7.4. The procedure:
as §1, §2

T2 sequence (P08637 17-208 F176V): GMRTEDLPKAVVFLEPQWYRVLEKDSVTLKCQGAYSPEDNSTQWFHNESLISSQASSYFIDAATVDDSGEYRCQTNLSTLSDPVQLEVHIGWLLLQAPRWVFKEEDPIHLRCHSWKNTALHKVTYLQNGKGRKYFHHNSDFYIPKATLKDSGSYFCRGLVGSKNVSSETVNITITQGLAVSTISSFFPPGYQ

B1: M103205H795-MY172 / M103202L889-SK1 (antibody, human IgG1, kappa)
heavy: QVTLKESGPVLVKPTETLTLTCTVSGIDLSHDDISWVRQAPGKGLEWVGIISYAGSTYYASWAKGRLTISKDTSKNQVVLTMTNMDPVDTATYYCARGVPAYSHGGDLWGQGTLVTVSSASTKGPSVFPLAPSSKSTSGGTAALGCLVKDYFPEPVTVSWNSGALTSGVHTFPAVLQSSGLYSLSSVVTVPSSSLGTQTYICNVNHKPSNTKVDKKVEPKSCDKTHTCPPCPAPELLNGPSVFLFPPKPKDTLMISRTPEVTCVVVDVSEEDPEVKFNWYVDGVEVHNAKTKPREEQYNSTYRVVSVLTVLHQDWLNGKEYKCKVSNKALPAPIEKTISKAKGQPREPQVYTLPPSREEMTKNQVSLTCLVKGFYPSDIAVEWESNGQPENNYKTTPGVLDSDGSFFLYSKLTVDKSRWQQGNVFSCSVMHEALHNHYTQKSLSLSP
light: DIVMTQSPATLSLSPGERATLSCTSSQSVYHANWLSWFQQKPGQPPKLLIYWASTLAYGVPSRFSGSGSGTDFTLTISSLQPEDAATYYCAGGYGGGRYAFGQGTKVEIKRTVAAPSVFIFPPSDEQLKSGTASVVCLLNNFYPREAKVQWKVDNALQSGNSQESVTEQDSKDSTYSLSSTLTLSKADYEKHKVYACEVTHQGLSSPVTKSFNRGEC
notes: Position 396 variant derived from MY052, expressed with M103202L889-SK1 as light chain
As to B1, the Kd in test [1] was found to be 17 µM; in test [2] it was 6.5 µM.

B2: M103205H795-MY184 / M103202L889-SK1 (antibody, human IgG1, kappa)
heavy: B1 heavy with G398Y
light: B1 light
notes: as for B1
As to B2, the Kd was 1.1 µM in test [1] and 6.8 µM in test [2].

B3: M103205H795-MY174 / M103202L889-SK1 (antibody, human IgG1, kappa)
heavy: B1 heavy with G398I
light: B1 light
notes: as for B1
Consider B3, for which the Kd in test [1] came to 0.81 µM; in test [2], 6.8 µM.

B4: M103205H795-MY178 / M103202L889-SK1 (antibody, human IgG1, kappa)
heavy: B1 heavy with G398Q
light: B1 light
notes: as for B1
With B4, the Kd in test [1] is 1.2 µM; in test [2], 4.5 µM.

B5: M103205H795-MY179 / M103202L889-SK1 (antibody, human IgG1, kappa)
heavy: B1 heavy with G398R
light: B1 light
notes: as for B1
As for B5, the results for the Kd in test [1] and in test [2] were 11 µM and 5.9 µM, respectively.

B6: M103205H795-MY175 / M103202L889-SK1 (antibody, human IgG1, kappa)
heavy: B1 heavy with G398K
light: B1 light
notes: as for B1
Regarding B6, the results for the Kd in test [1] and in test [2] were 0.86 µM and 7.6 µM, respectively.

B7: M103205H795-MY177 / M103202L889-SK1 (antibody, human IgG1, kappa)
heavy: B1 heavy with G398N
light: B1 light
notes: as for B1
B7: the results for the Kd in test [1] and in test [2] were 10 µM and 6.2 µM, respectively.

B8: M103205H795-MY180 / M103202L889-SK1 (antibody, human IgG1, kappa)
heavy: B1 heavy with G398S
light: B1 light
notes: as for B1
As for B8, the Kd in test [1] was 1.7 µM; in test [2] it was 5.9 µM.

B9: M103205H795-MY176 / M103202L889-SK1 (antibody, human IgG1, kappa)
heavy: B1 heavy with G398L
light: B1 light
notes: as for B1
On to B9, for which the Kd was 0.7 µM in test [1] and 6.7 µM in test [2].

B10: M103205H795-MY182 / M103202L889-SK1 (antibody, human IgG1, kappa)
heavy: B1 heavy with G398V
light: B1 light
notes: as for B1
On to B10, for which the Kd in test [1] is 1.3 µM; in test [2], 7 µM.

B11: M103205H795-MY181 / M103202L889-SK1 (antibody, human IgG1, kappa)
heavy: B1 heavy with G398T
light: B1 light
notes: as for B1
With B11, the Kd in test [1] was found to be 1.3 µM; in test [2], 7.3 µM.

B12: M103205H795-MY173 / M103202L889-SK1 (antibody, human IgG1, kappa)
heavy: B1 heavy with G398H
light: B1 light
notes: as for B1
On to B12, for which the Kd in test [1] amounted to 1 µM; in test [2] it was 7 µM.

B13: M103205H795-MY183 / M103202L889-SK1 (antibody, human IgG1, kappa)
heavy: B1 heavy with G398W
light: B1 light
notes: as for B1
Consider B13, for which the Kd was 1.2 µM in test [1] and 7.2 µM in test [2].

B14: MS_M103205H000-SG1/M103202LO00-SK1 (antibody, human IgG1, kappa, V domains shown)
VH: QVTLKESGPVLVKPTETLTLTCTVSGIDLSSYDISWVRQAPGKGLEWVGIISYAGSTYYASWAKGRLTISKDTSKNQVVLTMTNMDPVDTATYYCARGVPAYSTGGDLWGQGTLVTVSS
VL: DIVMTQSPATLSLSPGERATLSCQSSQSVYDNNWLSWFQQKPGQPPKLLIYWASTLASGVPSRFSGSGSGTDFTLTISSLQPEDAATYYCAGGYGGGLYAFGQGTKVEIKR
notes: Humanized MST1032, not pH-dependent; also called MS1032LO00-SG1; Ab001
As a reminder, the koff is the rate constant with which the complex falls apart. In general, kon refers to the second-order rate constant of association. In the case of B14, the Kd in test [3] is 79.7 pM; in test [4], 8.83 pM; in test [5], 8.7 pM; in test [6] it was 0.000209 µM. Besides, the koff in test [3] amounted to 0.000128 s⁻¹; in test [4] it was 1.58e-05 s⁻¹; in test [5], 2.02e-05 s⁻¹; in test [6], 0.000213 s⁻¹. Besides, the kon in test [3] was 1.6e+06 M⁻¹ s⁻¹; in test [4] it was 1.79e+06 M⁻¹ s⁻¹; in test [5] it was 2.32e+06 M⁻¹ s⁻¹; in test [6] it was 1.02e+06 M⁻¹ s⁻¹.

(Values after patent US20200317768A1 (published 2020).)
